Laboratory results from PMC10632456, “Cryo-EM structures of human magnesium channel MRS2 reveal gating and regulatory mechanisms” (Nature Communications, 2023).

Target: the molecule itself
Assay: cryo-EM structure; purified MRS2 at about 0.5 mg/ml in 20 mM HEPES, 150 mM NaCl, 40 mM MgCl2, 0.003% LMNG, pH 7.3; C5 and C1 reconstructions

B1: human MRS2 (Mitochondrial RNA Splicing 2 magnesium channel) (natural protein, UniProt Q9HD23 71-443, looked up)
chain: TSDVSQATLASVAPVFTVTKFDKQGNVTSFERKKTELYQELGLQARDLRFQHVMSITVRNNRIIMRMEYLKAVITPECLLILDYRNLNLEQWLFRELPSQLSGEGQLVTYPLPFEFRAIEALLQYWINTLQGKLSILQPLILETLDALVDPKHSSVDRSKLHILLQNGKSLSELETDIKIFKESILEILDEEELLEELCVSKWSDPQVFEKSSAGIDHAEEMELLLENYYRLADDLSNAARELRVLIDDSQSIIFINLDSHRNVMMRLNLQLTMGTFSLSLFGLMGVAFGMNLESSLEEDHRIFWLITGIMFMGSGLIWRRLLSFLGRQLEAPLPPMMASLPKKTLLADRSMELKNSLRLDGLGSGRSILTNR
notes: MRS2, human, UniProt Q9HD23; The full-length precursor was expressed; No step that removes the tag is described; also called HsMRS2; MRS2-Mg2+
- stoichiometry N: 5
